Test: yeast display, Sf9 membrane polyspecificity reagent, FACS + sequencing; frameworks hold sequencing errors
How it was run: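 After 36–48 hours of galactose induction, yeast (Saccharomyces cerevisiae BJ5465) displaying a synthetic nanobody library were stained at 4 °C for 1 hour with 10% biotinylated, detergent-solubilized Sf9 membrane reagent. Streptavidin microbeads enriched the stained cells before FACS sorting into low and high (top ~1%) gates on anti-HA and streptavidin fluorescence. Each clone's polyreactivity label reflects its gate of origin.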

Row | Sequence | polyreactivity (PSR sort gate)
1 | QVQLVESGGGLVQAGGSLRLSCAASGRTFRRYTMGWYRQAPGKERELVAAITTSGGSTYYADSVKGRFTISRDNAKNTVYLQMNSLKPEDTAVYYCAATRRYSGDYWGQGTQVTVSS | high polyreactivity
2 | QVQLVESGGGLVQAGGSLRLSCAASGRTFRSNAMGWFRQAPGKERELVAAISRTGRTNYADSVKGRFTISRDNAKNTVYLQMNSLKPEDTAVYYCAARGYSVPWQERYDYWGQGTQVTVSS | high polyreactivity
3 | QVQLVESGGGLVQAGGSLRLSCAASGRTFRSNAMGWYRQAPGKERELVAAIRTSGGSTYYADSVKGRFTISRDNAKNTVYLQMNSLKPEDTAVYYCNAELRDLEFDYWGQGTQVTVSS | low polyreactivity
4 | QVQLVESGGGLVQAGGSLRLSCAASGRTFRSNAMGWYRQAPGKERELVAVITRSGGSTDYADSVKGRFTISRDNAKNTVYLQMNSLKPEDTAVYYCAVRRYDYWGQVTQVTVSS | high polyreactivity
5 | QVQLVESGGGLVQAGGSLRLSCAASGRTFRSYAMGWYRQAPGKEREFVAAISRSGASTRYADSVKGRFTISRDNAKNTVYLQMNSLKPEDTAVYYCAKSWRYSINQSYRAGYNYWGQGTQVTVSS | high polyreactivity
6 | QVQLVESGGGLVQAGGSLRLSCAASGRTFRSYAMGWYRQAPGKERELVAAISRGGRTNYADSVKGRFTISRDNAKNTVYLQMNSLKPEDTAVYYCAAAQFRSYWAFDYWGQGTQVTVSS | high polyreactivity
7 | QVQLVESGGGLVQAGGSLRLSCAASGRTFRSYAMGWYRQAPGKERELVAGISYNGGSTYYADSVKGRFTISRDNAKNTVYLQMNSLKPADTAGYYCAATHHYRLYDYWGQGTQVNVSS | low polyreactivity
8 | QVQLVESGGGLVQAGGSLRLSCAASGRTFRSYTMGWYRQAPGKERELVAAISYNGGSTYYADSVKGRFTISRDNAKNTVYLQMNSLKPEDTAVYYCNKDFDGRFDYWGQGTQVTVSS | high polyreactivity
9 | QVQLVESGGGLVQAGGSLRLSCAASGRTFRTNAMAWYRQAPGKERELVAAITSDGTYYADSVKGRFTISRDNAKNTVYLQMNSLKPEDTAVYYWNVDDRENRDDYWGQGTQVTVSS | low polyreactivity
10 | QVQLVESGGGLVQAGGSLRLSCAASGRTFRTNAMGWYRQAPGKERELVAAISTGGGITNYADSVKGRFTISRDNAKNTVYLQMNSLKPEDTAVYYCNADIYTWFQIGGYQYDYWGQGTQVTVSS | low polyreactivity
11 | QVQLVESGGGLVQAGGSLRLSCAASGRTFRTYAMGWYRQAPGKETELVAANSSGGSTNYADSVKGRFTISRDNEKNTVYLQMNSLKPEDTAVYYCATRPTSDFVKRRVYEWLDYWGQGTQVTVSS | low polyreactivity
12 | QVQLVESGGGLVQAGGSLRLSCAASGRTFRTYNMGWYRQAPGKERELVAAISYSGGSTYYADSVKGRFTISRDNAKNTVYLQMNSLKPEDNAVYYCNARRYFWGFDYWGQGTQVNVSS | high polyreactivity
13 | QVQLVESGGGLVQAGGSLRLSCAASGRTFRVYAKGWYRQAPGKERDFVAAITDSGGRKYYADSVKGRFTISRDNAKHTVYVQMNSLKPEDTAVYYCNAYEYFVRYDTYLFRYDYWGQGTQVTVSS | low polyreactivity
14 | QVQLVESGGGLVQAGGSLRLSCAASGRTFRVYAMGWYRQAPGKEREFVAAISYSGGRTYYADSVKGRFTISRDNAKNTVYLQMNSLKPEDTAVYYCAKRVPYGRGVTGYYWGQGTQVTVSS | high polyreactivity
15 | QVQLVESGGGLVQAGGSLRLSCAASGRTFRVYAMGWYRQAPGKERELVASITRGGGTYADSVKGRFTISRDNAKNTVSLQMNSLKPEDTAVYYCNADSRRRRIHYDYWGQGTQVTVSS | high polyreactivity
16 | QVQLVESGGGLVQAGGSLRLSCAASGRTFRVYSMGWYRQAPGKERDFVAAITDSGGRTYYADSVKGRFTISRDNAKNTVYLQMNCLKPEDTAVYYCNAYQYYERYDTYLFRYDYWGQGTQVTVSS | low polyreactivity
17 | QVQLVESGGGLVQAGGSLRLSCAASGRTFRWNAMGWYRQAPGKERELVAAISSGGSTYYADSVKGRFTISRDNAKNTVYFQMNSLKPEDTAVYYCNKYYVRAYDTQEYDYWGQGTQVTVSS | high polyreactivity
